The target in this experiment is T1, human IL-11Rα (human, UniProt Q14626 23-363, limits assumed).
T1 construct: Protein coated on ELISA plates and used in solution for BLI; also called hIL-11Rα; hIL-11R
T1 sequence: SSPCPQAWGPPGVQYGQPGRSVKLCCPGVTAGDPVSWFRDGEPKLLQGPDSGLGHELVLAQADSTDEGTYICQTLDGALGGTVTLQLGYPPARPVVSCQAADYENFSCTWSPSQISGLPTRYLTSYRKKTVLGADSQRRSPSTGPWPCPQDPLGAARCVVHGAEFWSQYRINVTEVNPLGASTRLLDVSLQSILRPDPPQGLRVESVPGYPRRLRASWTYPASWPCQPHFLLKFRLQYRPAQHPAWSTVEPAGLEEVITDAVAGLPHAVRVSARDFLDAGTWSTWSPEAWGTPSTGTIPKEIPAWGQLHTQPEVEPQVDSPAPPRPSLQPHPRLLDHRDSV
Put plainly: competitive ELISA, IL-11R coated on plate; competitor: biotinylated 8E2 (0.1 µg/mL); competing against 8E2-bio. How it is done: Relative binding activity of the antibodies was tested by competitive ELISA using biotinylated mAbs 8E2 or TS7. Antibodies 8E2 and TS7 were biotinylated using sulfo-NHS Biotin (Thermo Fisher) per the manufacturer's instructions. IL-11R was coated onto ELISA plates (Nunc, MaxiSorp) at 2 μg/mL in PBS, and plates were blocked with 2% BSA in PBS. After washing the plate with water, antibodies to be tested were titrated across the plate in a final volume of 90 μL followed by addition of 10 μL of biotinylated 8E2 or biotinylated TS7, as indicated in Table E1 (0.1 μg/mL final concentration) to each well. Plates were incubated for 2 hours on a plate-shaker, followed by washing and addition of 100 μL/well of streptavidin-HRP (Jackson ImmunoResearch, 1/1000 dilution). After a further 1 hour incubation, plates were washed, developed with Ultra-TMB HRP substrate (Thermo Fisher), and stopped by the addition of 50 μL/well of 2 M sulfuric acid. Plates were read at 450 nm on an iD5 plate reader (Molecular Devices).

Consider one molecule from patent US20240425606A1, “ANTI-IL-11RA ANTIBODIES” (Lassen Therapeutics 1, Inc., priority 2021, published 2024).

A value given as a limit tells only on which side of the number the result lay.

B1: mAb1 (antibody, V domains shown)
VH: EVQLLESGGGLVQPGGSLRLSCAASGFTFSWYSMTWVRQAPGKGLEWVSSIVPSGGHTQYADSVKGRFTISRDNSKNTLYLQMNSLRAEDTAVYYCAKGPDWGSFDLWGRGTLVTVSS
VL: DIQMTQSPSSLSASVGDRVTITCQASQDINNYLNWYQQKPGKAPKLLIYDASNLQTGVPSRFSGSGSGTDFTFTISSLQPEDIATYYCQQHESQSPTFGPGTKVDIK
notes: Expressed as human IgG4 (S228P EU)
For B1, the IC50 was > 10 µg/mL.
